# Test results as given in PMC8595662.
# Tests used:
# [1] = target: AMMO1, human gH/gL-specific neutralizing antibody (recombinant IgG1) (human); assay: SPR
# [2] = target: AMMO1 (human); assay: SPR
# Chain of AMMO1 (human) (heavy, as listed by the source, chain 1 of 2): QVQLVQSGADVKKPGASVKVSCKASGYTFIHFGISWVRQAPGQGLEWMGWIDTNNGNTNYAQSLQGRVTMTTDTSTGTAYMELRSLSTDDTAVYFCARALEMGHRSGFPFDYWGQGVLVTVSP
# Chain of AMMO1 (human) (light, as listed by the source, chain 2 of 2): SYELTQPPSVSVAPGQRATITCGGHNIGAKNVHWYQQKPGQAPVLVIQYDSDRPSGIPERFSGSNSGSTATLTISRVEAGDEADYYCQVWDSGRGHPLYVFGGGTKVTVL
# Chain of AMMO1, human gH/gL-specific neutralizing antibody (recombinant IgG1) (human) (heavy, as listed by the source, chain 1 of 2): as the sequence (heavy, as listed by the source, chain 1 of 2) above
# Chain of AMMO1, human gH/gL-specific neutralizing antibody (recombinant IgG1) (human) (light, as listed by the source, chain 2 of 2): as the sequence (light, as listed by the source, chain 2 of 2) above
Substance,Kd [1] [pM],koff [2] [s⁻¹]
EBV gH/gL single chain with N310A in gH (from UniProt P03231;P03212) (complex),190,–
gH N310A/gL (from UniProt P03231;P03212) (complex),–,9.6e-05
